Common to all, as to settings: partners not purified
In assay [1] the target is T1, NCC-pBIND (full-length NCC fused to the GAL4 DNA-binding domain) (UniProt P59158 1-1002).
T1 construct: source: COS-7, transiently transfected, mammalian two-hybrid fusion
T1 sequence (looked up): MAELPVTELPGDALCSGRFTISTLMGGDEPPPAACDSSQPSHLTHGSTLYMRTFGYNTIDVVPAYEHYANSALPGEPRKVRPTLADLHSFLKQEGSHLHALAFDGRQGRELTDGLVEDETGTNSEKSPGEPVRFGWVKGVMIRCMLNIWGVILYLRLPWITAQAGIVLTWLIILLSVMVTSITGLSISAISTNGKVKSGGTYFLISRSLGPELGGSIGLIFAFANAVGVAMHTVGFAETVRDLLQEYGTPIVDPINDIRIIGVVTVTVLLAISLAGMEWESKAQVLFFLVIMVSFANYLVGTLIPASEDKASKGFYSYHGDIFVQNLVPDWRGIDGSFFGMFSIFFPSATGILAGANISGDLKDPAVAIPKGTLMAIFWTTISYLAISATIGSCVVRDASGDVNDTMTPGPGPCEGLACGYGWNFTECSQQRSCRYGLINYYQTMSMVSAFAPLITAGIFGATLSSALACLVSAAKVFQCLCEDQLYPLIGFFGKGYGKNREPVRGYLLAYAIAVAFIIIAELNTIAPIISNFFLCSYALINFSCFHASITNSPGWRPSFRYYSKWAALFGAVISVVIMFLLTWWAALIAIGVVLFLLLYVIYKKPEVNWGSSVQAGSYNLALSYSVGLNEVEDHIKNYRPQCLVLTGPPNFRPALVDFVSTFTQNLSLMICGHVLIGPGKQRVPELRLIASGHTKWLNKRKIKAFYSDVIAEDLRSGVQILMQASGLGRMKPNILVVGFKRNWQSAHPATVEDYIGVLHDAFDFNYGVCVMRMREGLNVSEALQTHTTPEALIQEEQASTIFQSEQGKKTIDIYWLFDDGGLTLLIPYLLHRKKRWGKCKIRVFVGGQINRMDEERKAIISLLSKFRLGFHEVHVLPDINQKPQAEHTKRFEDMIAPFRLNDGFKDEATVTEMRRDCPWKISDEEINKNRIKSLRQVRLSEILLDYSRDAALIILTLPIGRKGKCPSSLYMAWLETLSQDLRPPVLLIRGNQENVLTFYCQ
Description: two-hybrid; Checkmate mammalian two-hybrid in transiently transfected COS-7 cells; NCC-pBIND (GAL4 DNA-binding domain) with α- or γ-pACT (VP16) and pG5luc; firefly luciferase normalized to Renilla, fold change of negative control (empty pBIND + pACT); with or without co-transfected SGK1 or WNK4; read 48 hours after transfection.

The target of assay [2] is T2, thiazide-sensitive sodium chloride cotransporter (NCC) (mouse (endogenous in mDCT15 cells and …, UniProt P59158 1-1002)).
T2 construct: thiazide-sensitive sodium-chloride cotransporter (NCC), endogenous in mouse mDCT15 cells and mouse kidney cortex; Precipitated with an anti-NCC antibody coupled to resin (Pierce Co-Immunoprecipitation Kit); source: endogenous, mDCT15 whole cell lysate; endogenous, mouse kidney cortex homogenate
T2 sequence (looked up): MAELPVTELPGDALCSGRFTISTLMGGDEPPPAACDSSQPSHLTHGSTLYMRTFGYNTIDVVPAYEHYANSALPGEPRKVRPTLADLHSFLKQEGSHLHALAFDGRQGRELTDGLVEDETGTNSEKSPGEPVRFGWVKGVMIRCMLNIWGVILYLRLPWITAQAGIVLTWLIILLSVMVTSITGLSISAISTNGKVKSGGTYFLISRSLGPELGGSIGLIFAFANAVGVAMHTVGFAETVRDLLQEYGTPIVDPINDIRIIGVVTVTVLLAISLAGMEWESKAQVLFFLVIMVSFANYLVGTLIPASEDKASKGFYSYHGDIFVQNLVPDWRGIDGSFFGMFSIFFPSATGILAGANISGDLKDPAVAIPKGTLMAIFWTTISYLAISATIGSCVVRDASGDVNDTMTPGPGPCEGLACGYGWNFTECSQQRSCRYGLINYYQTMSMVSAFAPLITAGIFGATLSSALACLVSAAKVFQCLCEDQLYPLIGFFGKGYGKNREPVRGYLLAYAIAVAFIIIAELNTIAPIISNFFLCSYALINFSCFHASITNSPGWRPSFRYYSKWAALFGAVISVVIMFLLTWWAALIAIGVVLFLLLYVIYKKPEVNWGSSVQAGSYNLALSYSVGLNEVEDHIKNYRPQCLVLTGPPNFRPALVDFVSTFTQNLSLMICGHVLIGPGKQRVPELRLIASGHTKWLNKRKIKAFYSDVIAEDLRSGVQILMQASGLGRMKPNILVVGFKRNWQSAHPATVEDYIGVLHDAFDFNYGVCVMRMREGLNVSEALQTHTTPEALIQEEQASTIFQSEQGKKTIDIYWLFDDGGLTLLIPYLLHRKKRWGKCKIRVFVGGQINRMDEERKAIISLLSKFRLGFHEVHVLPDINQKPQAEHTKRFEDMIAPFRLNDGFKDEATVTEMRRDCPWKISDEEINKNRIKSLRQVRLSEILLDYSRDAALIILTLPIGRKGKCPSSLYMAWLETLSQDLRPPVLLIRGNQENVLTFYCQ
Kind of assay: co-IP; mDCT15 whole cell lysates (about 800 ug protein per column), anti-NCC antibody coupled to resin (Pierce Co-Immunoprecipitation Kit), eluate blotted for αENaC; cells treated with vehicle (EtOH), Aldo (100 nM, 48 hrs), Aldo + SGK1 inhibitor (GSK690394, 6 uM, 60 min) or SGK1 inhibitor alone.

The target of assay [3] is T2, thiazide-sensitive sodium chloride …. Kind of assay: co-IP; mouse kidney cortex homogenates (RIPA buffer), anti-NCC antibody coupled to resin (Pierce Co-Immunoprecipitation Kit), eluate blotted for αENaC; mice on high salt (4%) chow treated with vehicle (25% DMSO in saline) or Aldo (4 ug/day, 10 d).

B1: γ-pACT (full-length γENaC fused to the VP16 activation domain) (natural protein, UniProt Q9WU39 1-655, looked up)
chain: MAPGEKIKAKIKKNLPVRGPQAPTIKDLMHWYCLNTNTHGCRRIVVSRGRLRRLLWIAFTLTAVALIIWQCALLVFSFYTVSVSIKVHFQKLDFPAVTICNINPYKYSAVSDLLTDLDSETKQALLSLYGVKDVLDSTPRKRREAGSMRSTWEGTPPRFLNLIPLLVFNENEKGKARDFFTGRKRKISGKIIHKASNVMHVHESKKLVGFQLCSNDTSDCATYTFSSGINAIQEWYKLHYMNIMAQVPLEKKINMSYSAEELLVTCFFDGMSCDARNFTLFHHPMYGNCYTFNNRENATILSTSMGGSEYGLQVILYINEDEYNPFLVSSTGAKVLVHQQNEYPFIEDVGTEIETAMSTSIGMHLTESFKLSEPYSQCTEDGSDVPVTNIYNAAYSLQICLYSCFQTKMVEKCGCAQYSQPLPPAANYCNYQQHPNWMYCYYQLYQAFVREELGCQSVCKQSCSFKEWTLTTSLAQWPSEASEKWLLNVLTWDQSQQINKKLNKTDLAKLLIFYKDLNQRSIMESPANSIEMLLSNFGGQLGLWMSCSVVCVIEIIEVFFIDFFSIIARRQWQKAKDWWARRRTPPSTETPSSQQGQDNPALDTDDDLPTFTSAMRLPPAPEAPVPGTPPPRYNTLRLDSAFSSQLTDTQLTNEF
notes: epithelial sodium channel (ENaC) gamma subunit, full-length clone in pACT; source: COS-7, transiently transfected, mammalian two-hybrid fusion
Turning to B1, the “two-hybrid luciferase signal, fold of negative control” value in assay [1] was 4.33 fold change of negative control.

B2: epithelial sodium channel alpha subunit (αENaC) (natural protein, UniProt Q61180 1-699, looked up)
chain: MLDHTRAPELNLDLDLDVSNSPKGSMKGNNFKEQDLCPPLPMQGLGKGDKREEQALGPEPSEPRQPTEEEEALIEFHRSYRELFQFFCNNTTIHGAIRLVCSKHNRMKTAFWAVLWLCTFGMMYWQFALLFEEYFSYPVSLNINLNSDKLVFPAVTVCTLNPYRYTEIKEDLEELDRITEQTLFDLYKYNSSYTRQAGGRRRSTRDLRGALPHPLQRLRTPPPPNPARSARSASSSVRDNNPQVDRKDWKIGFQLCNQNKSDCFYQTYSSGVDAVREWYRFHYINILSRLPDTSPALEEEALGSFIFTCRFNQAPCNQANYSQFHHPMYGNCYTFNNKNNSNLWMSSMPGVNNGLSLTLRTEQNDFIPLLSTVTGARVMVHGQDEPAFMDDGGFNVRPGVETSISMRKEALDSLGGNYGDCTENGSDVPVKNLYPSKYTQQVCIHSCFQENMIKKCGCAYIFYPKPKGVEFCDYLKQSSWGYCYYKLQAAFSLDSLGCFSKCRKPCSVTNYKLSAGYSRWPSVKSQDWIFEMLSLQNNYTINNKRNGVAKLNIFFKELNYKTNSESPSVTMVSLLSNLGSQWSLWFGSSVLSVVEMAELIFDLLVITLIMLLHRFRSRYWSPGRGARGAREVASTPASSFPSRFCPHPTSPPPSLPQQGTTPPLALTAPPPAYATLGPSASPLDSAVPGSSACAPAMAL
notes: epithelial sodium channel (ENaC) alpha subunit, endogenous in mouse mDCT15 cells and mouse kidney cortex; Detected by immunoblot with an αENaC antibody in the NCC precipitate; source: endogenous, mDCT15 whole cell lysate; endogenous, mouse kidney cortex homogenate
Consider B2, for which, in assay [2], the “fold change of αENaC co-precipitated with NCC, Aldo + SGK1 inhibitor against vehicle” value is 1.55 fold change/vehicle; the “fold change of αENaC co-precipitated with NCC, Aldo against vehicle” value was determined as 2.05 fold change/vehicle; the “fold change of αENaC relative to NCC in the CoIP fractions, Aldo against vehicle” value was determined as 1.55 fold change/vehicle. For the same molecule, in assay [3], the “fold change of αENaC co-precipitated with NCC, Aldo against vehicle” value came to 3.07 fold change/vehicle.

B3: α-pACT (full-length αENaC fused to the VP16 activation domain) (natural protein, UniProt Q61180 1-699, looked up)
chain: MLDHTRAPELNLDLDLDVSNSPKGSMKGNNFKEQDLCPPLPMQGLGKGDKREEQALGPEPSEPRQPTEEEEALIEFHRSYRELFQFFCNNTTIHGAIRLVCSKHNRMKTAFWAVLWLCTFGMMYWQFALLFEEYFSYPVSLNINLNSDKLVFPAVTVCTLNPYRYTEIKEDLEELDRITEQTLFDLYKYNSSYTRQAGGRRRSTRDLRGALPHPLQRLRTPPPPNPARSARSASSSVRDNNPQVDRKDWKIGFQLCNQNKSDCFYQTYSSGVDAVREWYRFHYINILSRLPDTSPALEEEALGSFIFTCRFNQAPCNQANYSQFHHPMYGNCYTFNNKNNSNLWMSSMPGVNNGLSLTLRTEQNDFIPLLSTVTGARVMVHGQDEPAFMDDGGFNVRPGVETSISMRKEALDSLGGNYGDCTENGSDVPVKNLYPSKYTQQVCIHSCFQENMIKKCGCAYIFYPKPKGVEFCDYLKQSSWGYCYYKLQAAFSLDSLGCFSKCRKPCSVTNYKLSAGYSRWPSVKSQDWIFEMLSLQNNYTINNKRNGVAKLNIFFKELNYKTNSESPSVTMVSLLSNLGSQWSLWFGSSVLSVVEMAELIFDLLVITLIMLLHRFRSRYWSPGRGARGAREVASTPASSFPSRFCPHPTSPPPSLPQQGTTPPLALTAPPPAYATLGPSASPLDSAVPGSSACAPAMAL
notes: epithelial sodium channel (ENaC) alpha subunit, full-length clone in pACT; source: COS-7, transiently transfected, mammalian two-hybrid fusion
B3: in assay [1], the “two-hybrid luciferase signal, fold of negative control” value is 7.74 fold change of negative control and the “two-hybrid luciferase signal, fold of negative control, with SGK1 co-transfected” value was 14.7 fold change of negative control.

(Values after PMC5482882, “Aldosterone Modulates the Association between NCC and ENaC” (Scientific Reports, 2017).)
